Where no end group is shown, it is not given here.
T1: recombinant human IL-33 protein (residues 112 to 270) (ILC0701, ATGen Co. Ltd) (human, UniProt O95760 112-270)
T1 construct: bought protein
T1 sequence: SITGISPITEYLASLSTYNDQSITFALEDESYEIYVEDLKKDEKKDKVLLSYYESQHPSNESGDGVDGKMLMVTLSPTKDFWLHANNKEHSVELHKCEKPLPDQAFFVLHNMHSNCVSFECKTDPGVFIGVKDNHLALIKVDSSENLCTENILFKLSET

T2: DQSITFALEDESYEIYVEDL (PEP14) (human, not fully specified)
T2 peptide: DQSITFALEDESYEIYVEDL

T3: EDESYEIYV (human, not fully specified (N-terminus))
T3 construct: synthetic peptide
T3 peptide: EDESYEIYV

T4: LEDESYEIYV (human, not fully specified (N-terminus))
T4 construct: synthetic peptide
T4 peptide: LEDESYEIYV

T5: full-length human IL-33 protein (human, UniProt O95760 1-270)
T5 construct: also called Human IL-33 (Full-Length)
T5 sequence: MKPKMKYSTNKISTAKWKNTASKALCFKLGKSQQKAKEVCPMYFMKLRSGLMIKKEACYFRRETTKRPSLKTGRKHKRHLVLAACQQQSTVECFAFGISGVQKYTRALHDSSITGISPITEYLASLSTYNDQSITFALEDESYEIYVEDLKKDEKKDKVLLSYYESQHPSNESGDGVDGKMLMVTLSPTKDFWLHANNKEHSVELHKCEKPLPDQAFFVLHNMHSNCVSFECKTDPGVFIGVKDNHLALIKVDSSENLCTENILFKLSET


Columns and labels:
[1] = target: T1, recombinant human IL-33 protein …; experiment: KinExA in PBS, alkaline-purified IgG
Method: (§1) Mixture samples of a test antibody and a human IL-33 protein (ILC0701, available from ATGen Co. Ltd) were prepared. The human IL-33 protein was titrated to a constant concentration of test antibody (final concentration: several tens of pM to several hundreds of pM) over a wide concentration range of the human IL-33 protein (so that it covered the concentrations of the human IL-33 protein resulting from 12-step serial doubling dilutions, i.e. one- to 2048-fold, with the upper limit of final concentration set to several nM to several tens of nM). The mixture samples were incubated at a room temperature until the antigen-antibody reaction reached equilibrium. After the reaction reached equilibrium, the percentage of free anti-IL-33 antibody in each sample was analyzed using KinExA3200. The values of Kd were calculated by fitting the plot of percentages of anti-IL-33 antibody not bound to the human IL-33 protein (vertical axis) and concentrations of antigen (horizontal axis) to a theoretical formula, using a KinExA data analysis program (KinExA Pro Software v3.5.3, available from Sapidyne Instruments, Inc.). Beads for capturing the anti-IL-33 antibody were prepared by suspending 50 mg of Azlactone beads (Sapidyne) in 1 mL of coating solution (10 μg/mL human IL-33 protein (ILC0701, available from ATGen Co. Ltd), 50 mM sodium carbonate at pH of 9.6) and incubating the solution at a room temperature for one hour. The antibody for detection used was anti-human F(ab)′2-DyLight649 (Jackson, 309-495-006).

[2] = target: T1, recombinant human IL-33 protein …; experiment: KinExA in PBS, neutral-purified IgG
Method: Each test antibody (IgG) (“antibody (IgG)” indicates an antibody having a molecular form of IgG; hereinafter, the same representation is used) was analyzed to confirm the affinity with the human IL-33 protein by measuring dissociation constant (Kd) between each test antibody and the human IL-33 protein in PBS by kinetic exclusion assay (KinExA) (KinExA3200, available from Sapidyne Instruments, Inc.). Mixture samples of a test antibody and a human IL-33 protein (ILC0701, available from ATGen Co. Ltd) were prepared. The human IL-33 protein was titrated to a constant concentration of test antibody (final concentration: several tens of pM to several hundreds of pM) over a wide concentration range of the human IL-33 protein (so that it covered the concentrations of the human IL-33 protein resulting from 12-step serial doubling dilutions, i.e. one- to 2048-fold, with the upper limit of final concentration set to several nM to several tens of nM). The mixture samples were incubated at a room temperature until the antigen-antibody reaction reached equilibrium. After the reaction reached equilibrium, the percentage of free anti-IL-33 antibody in each sample was analyzed using KinExA3200. The values of Kd were calculated by fitting the plot of percentages of anti-IL-33 antibody not bound to the human IL-33 protein (vertical axis) and concentrations of antigen (horizontal axis) to a theoretical formula, using a KinExA data analysis program (KinExA Pro Software v3.5.3, available from Sapidyne Instruments, Inc.). Beads for capturing the anti-IL-33 antibody were prepared by suspending 50 mg of Azlactone beads (Sapidyne) in 1 mL of coating solution (10 μg/mL human IL-33 protein (ILC0701, available from ATGen Co. Ltd), 50 mM sodium carbonate at pH of 9.6) and incubating the solution at a room temperature for one hour. The antibody for detection used was anti-human F(ab)′2-DyLight649 (Jackson, 309-495-006).

[3] = target: T1, recombinant human IL-33 protein …; experiment: SPR (Biacore T200), human IL-33 (ILC0701) immobilized on CM5, Calibration Free Concentration Analysis of the preserved antibody against a control-preserved sample
Method: Each alkaline-purified antibody was dissolved in a citrate buffer (50 mM citric acid; 150 mM NaCl (pH: 6.3)) at a concentration of about 10 mg/mL, and was preserved at a temperature of 40° C. for four weeks, to evaluate the preservation stability of each test antibody (IgG). For evaluation of the monomer purity of each antibody after the preservation, monomer purity was measured by size exclusion chromatography analysis (SEC) and microchip capillary SDS electrophoresis (mCE-SDS), and antigen-binding activity was measured by surface plasmon resonance.
In order to confirm the presence of the antigen-binding ability after the preservation, the antigen-binding activity was measured with a surface plasmon resonance system, Biacore T200 (available from GE Healthcare). A human IL-33 protein (ILC0701, available from ATGen Co. Ltd) was immobilized onto a Sensor Chip CM5 (GE Healthcare) (the amount of immobilized protein was about 3000 to 6000 RU) with Amine Coupling Kit (GE Healthcare). Each preserved antibody solution was then diluted to 10-fold with a citric buffer (50 mM citric acid, 150 mM NaCl (pH: 6.3)), and the resulting solution was analyzed to measure the total protein concentration in the solution, using a microvolume spectrophotometer, Astragene II (Astranet Systems, Ltd.) (protein concentration: about 1 mg/mL). The antibody solution after the measurement of the total protein concentration was diluted to 1000-fold with HBS-EP buffer (10 mM HEPES, 150 mM NaCl, 3 mM EDTA, 0.05% (v/v) Surfactant P20 (at pH of 7.4)). The analyte was thereby prepared. The measurement temperature was 25° C. Each analyte was added for 36 seconds at two flow rates of 5 μL/min and 100 μL/min to obtain sensorgrams of the association phase. The sensorgrams were then analyzed by Calibration Free Concentration Analysis using a data analysis program (GE Healthcare, Biacore T200 Evaluation Software v1.0) to determine the concentration of the antibody having antigen-binding activity. As control, each test antibody after preservation at a temperature of 4° C. for four weeks was also analyzed to confirm the antigen-binding activity, to calculate the ratio of antigen-binding activity of each test antibody after the preservation at a temperature of 40° C. for four weeks.

[4] = target: T1, recombinant human IL-33 protein …; experiment: cell-based or functional assay
[5] = target: T2, DQSITFALEDESYEIYVEDL (PEP14); experiment: KinExA, alkaline-purified IgG, peptide
Method: (§2) The mixture samples were incubated at a room temperature until the antigen-antibody reaction reached equilibrium. After the reaction reached equilibrium, the percentage of free anti-IL-33 antibody in each sample was analyzed using KinExA3200. The values of Kd were calculated by fitting the plot of percentages of anti-IL-33 antibody not bound to the human IL-33 protein (vertical axis) and concentrations of antigen (horizontal axis) to a theoretical formula, using a KinExA data analysis program (KinExA Pro Software v3.5.3, available from Sapidyne Instruments, Inc.). Beads for capturing the anti-IL-33 antibody were prepared by suspending 50 mg of Azlactone beads (Sapidyne) in 1 mL of coating solution (10 μg/mL human IL-33 protein (ILC0701, available from ATGen Co. Ltd), 50 mM sodium carbonate at pH of 9.6) and incubating the solution at a room temperature for one hour. The antibody for detection used was anti-human F(ab)′2-DyLight649 (Jackson, 309-495-006).
(§3) The anti-IL-33 monoclonal antibodies A10-1C04 and A25-3H04 bound to the epitope PEP14 as described in the Example 1. […] These peptides were synthesized, and the affinity with the alkali-purified antibodies was calculated as Kd by the KinExA experiment as in Example 9 (Table 14).

[6] = target: T3, EDESYEIYV; experiment: KinExA, alkaline-purified IgG, peptide
Method: as §2, §3

[7] = target: T4, LEDESYEIYV; experiment: KinExA, alkaline-purified IgG, peptide
Method: as §2, §3

[8] = target: T5, full-length human IL-33 protein; experiment: KinExA in PBS, alkaline-purified IgG
Method: as §1

| Kd [1] [pM] | Kd [2] [pM] | % Active IgG (antigen binding activity after preservation at 40 C for 4 W) [3] [%] | IC50 of inhibition of IL-6 production by HUVEC (alkaline-purified IgG, human IL-33 100 ng/mL) [4] [µg/mL] | inhibition of IFN-γ production by human PBMC (alkaline-purified IgG 10 ug/mL, IL-33 10 ng/mL, IL-12 10 ng/mL) [4] [%] | inhibition of production of IL-5 and IL-13 by KU-812 cells (alkaline-purified IgG 1 ug/mL; IL-33 3 ng/mL with IL-3 and C5a) [4] [%] | percentage of inhibition (%) of IL-6 production by HUVEC (neutral-purified IgG 1 ug/mL, IL-33 100 ng/mL) [4] [%] | Kd [5] [pM] | Kd [6] [pM] | Kd [7] [pM] | Kd [8] [pM] | Binder |
| --- | --- | --- | --- | --- | --- | --- | --- | --- | --- | --- | --- |
| 195 | 231 | 102 | 0.27 | 97.5 | ≥ 50 | 74 |  |  |  |  | A23-1A05 (IgG) (antibody, V domains shown, tested as neutral-purified and as alkaline-purified antibody; also called V8; IGN8) VH: EVQLLESGGGLVQPGGSLRLSCAASGFTFSNYYMHWVRQAPGKGLEWVSSISARSRYHYYADSVKGRFTISRDNSKNTLYLQMNSLRAEDTAVYYCARLATRHNAFDIWGQGTLVTVSS VL: QSVLTQPPSASGTPGQRVTISCSGSSSNIGNNAVSWYQQLPGTAPKLLIYASNMRVIGVPDRFSGSKSGTSASLAISGLRSEDEADYYCGAWDDSQKALVFGGGTKLTVL |
| 0.7 | 0.72 | 100 | 0.19 | 98.8 | ≥ 50 | 96 |  |  |  |  | A25-2C02 (IgG) (antibody, V domains shown, tested as neutral-purified and as alkaline-purified antibody; also called V15; IGN15) VH: EVQLLESGGGLVQPGGSLRLSCAASGFTFSNYYMHWVRQAPGKGLEWVSSISARSSYIYYADSVKGRFTISRDNSKNTLYLQMNSLRAEDTAVYYCARLATRNNAFDIWGQGTLVTVSS VL: QSVLTQPPSASGTPGQRVTISCSGSSSNIGRNAVNWYQQLPGTAPKLLIYASNMRVSGVPDRFSGSKSGTSASLAISGLRSEDEADYYCWAWDDSQKVGVFGGGTKLTVL |
| 7.7 | 5.38 | 102 | 0.21 | 97.9 | ≥ 50 | 97 | 1.5 | 301000 | 11000 |  | A25-3H04 (IgG) (antibody, V domains shown, tested as neutral-purified and as alkaline-purified antibody; also called V17; IGN17) VH: EVQLLESGGGLVQPGGSLRLSCAASGFTFSRYYMHWVRQAPGKGLEWVSSISAQSSHIYYADSVEGRFTISRDNSKNTLYLQMNSLRAEDTAVYYCARLATRQNAFDIWGQGTLVTVSS VL: QSVLTQPPSASGTPGQRVTISCSGSSSNIGRNAVNWYQQLPGTAPKLLIYASNMRRSGVPDRFSGSKSGTSASLAISGLRSEDEADYYCSAWDDSQKVVVFGGGTKLTVL |
| 5.3 | 10.8 | 101 | 0.23 | 98.2 | ≥ 50 | 96 |  |  |  | 10.4 | A26-1F02 (IgG) (antibody, V domains shown, tested as neutral-purified and as alkaline-purified antibody; also called V18; IGN18) VH: EVQLLESGGGLVQPGGSLRLSCAASGFTFSNYYMHWVRQAPGKGLEWVSSISARSSYLYYADSVKGRFTISRDNSKNTLYLQMNSLRAEDTAVYYCARLATRHVAFDIWGQGTLVTVSS VL: QSVLTQPPSASGTPGQRVTISCSGSSSNIGNNAVNWYQQLPGTAPKLLIYASNMRRPGVPDRFSGSKSGTSASLAISGLRSEDEADYYCEAWDDSQKAVVFGGGTKLTVL |

Source: patent US20240002495A1 (MITSUBISHI TANABE PHARMA, published 2024)
